Source: patent US11466066B2, “Variants of human BMP7 protein” (ELI LILLY AND COMPANY, priority 2017, dated 2022)

B1: Human mature BMP7 protein variant F9 (SEQ ID NO: 8): homodimer wherein each monomeric subunit has SEQ ID NO: 8 (Y65G/I86L/F93V/N110G/Y128W), disulfide linked (protein)
chain: STGSKQRSQNRSKTPKNQEALRMANVAENSSSDQRQACKKHELYVSFRDLGWQDWIIAPEGYAAGYCEGECAFPLNSYMNATNHALVQTLVHVINPETVPKPCCAPTQLGAISVLYFDDSSNVILKKWRNMVVRACGCH
modifications: homodimer, disulfide linked

Assays:
[1] = system: MFc7 mouse renal myofibroblasts; assay: Alkaline phosphatase stimulation in MFc7 cells; assay type: cell-based; settings: 1 μg/ml pro-BMP7, 1 μM ATRA, 48 hours
Description: 3T3-L1 fibroblasts and MFc7 mouse renal myofibroblasts may be grown essentially as described in Example 2 above. After 48 hours the cells may be washed with PBS prior to the addition of either DMEM/2% dialyzed FBS or OPTI-MEM/2% dialyzed FBS medium containing control vehicle, 1 μg/ml human proBMP7 protein, 1 μM ATRA or a combination of both human BMP7 protein (1 μg/ml) and ATRA (1 μM) may be added for 48 hours. After treatment the cells may be rinsed with PBS and stored at −80° C. for approximately 20 minutes. The cells may be thawed at 37° C. for 30 minutes and 100 μl of PNPP may be added to every well. The plate may be incubated at 37° C. for 1 hour. The absorbance at 405 nm may be read on a plate reader.

[2] = system: MFc7 mouse renal myofibroblasts; assay: MFc7 bioassay; assay type: cell-based; settings: EC50 of wild type BMP7 protein/EC50 of the variant; multiple amino acid changes (Table 3)
Description: MFc7 mouse renal myofibroblasts (mouse kidney fibroblast cell line) may be maintained under routine cell culture conditions in OPTI-MEM/10% FBS medium. The cells may be plated in 10 cm tissue culture plates at a seeding density of 500,000 cells/plate. After approximately 48 hours, the cells may be washed with phosphate buffered saline (PBS) prior to the addition of OPTI-MEM/2% dialyzed fetal bovine serum (FBS) medium containing 1 μg/ml BMP7 protein or 1 μg/ml of a BMP7 protein variant and incubated for 48 hours. After treatment the cells may be rinsed with PBS and stored at −80° C. for 20 minutes. After thawing the cells at 37° C. for 30 minutes 100 μl of para-nitrophenyl phosphate (PNPP) may be added. The plate may be incubated at 37° C. for 1 hour. The absorbance at 405 nm may be read utilizing a plate reader. The average relative potency (EC50 of wild type BMP7 protein/EC50 of the BMP7 protein variant) of certain human BMP7 protein variants of the present invention may be calculated based on such readings.

DLD1 C5 tumor xenografts = assay: DLD1 C5 mouse xenograft tumor model; assay type: in vivo; settings: F9 IP 0.04 mg/kg MWF for 3 weeks followed by 3 weeks irinotecan 20 mg/kg M and Th
Description: Female athymic nude mice age 6- to 7-weeks old are available commercially, including from Harlan Laboratories (Indianapolis, Ind.). The mice are allowed to acclimate for one week and fed ad libitum on a normal low fat (4.5%) diet, which may be continued for the duration of the study. Tumor cells are available for purchase from ATCC and may be cultured in cell culture media such as RPMI 1640 (Life Technologies) with L-glutamine, 25 mM HEPES supplemented with 10% FBS and 1 mM Na Pyruvate. Cells may be detached, washed with serum free medium and then resuspended at a final concentration of 50×10^6 cells/mL in serum free RPMI 1640. Tumor cells, approximately 5×106 may be injected subcutaneously in the rear flank of subject mice in a 1:1 mixture of serum free growth medium and Matrigel (Becton Dickinson, Bedford, Mass.). Tumor and body weight measurements may be performed twice weekly. Prior to treatment, mice can be randomized based on tumor size using a randomization algorithm. Treatments may be started when the average tumor volume reaches 100 mm3. […]
All test or control proteins are prepared in phosphate Buffered Saline (PBS) prior to dose. Tumor size may be determined by caliper measurements. […] Log volume data can be analyzed with two-way repeated measures ANOVA by time and treatment using SAS PROC MIXED software (SAS Institutes Inc, Cary, N.C.). […]

Row | Molecule | fold change in alkaline phosphatase stimulation relative to control vehicle treated cells [1] [fold] | Average Relative Potency [2] | tumor response (DLD1 C5 tumor xenografts)
1 | Wild type human pro-BMP7: homodimers of wild type human mature BMP7 in a non-covalent complex with wild type human pro-domain [reference compound] | 21 | – | –
2 | B1 | – | 69 | tumor regression
